Columns and labels:
[1] = molecular target: Isolated Link module of human TSG-6 (Link_TSG6) (human, UniProt P98066 36-129); test: SPR
[2] = molecular target: Full-length, wild type recombinant human TSG-6 (human, UniProt P98066 18-277); test: SPR
Full-length, wild type recombinant human TSG-6, sequence (P98066 18-277): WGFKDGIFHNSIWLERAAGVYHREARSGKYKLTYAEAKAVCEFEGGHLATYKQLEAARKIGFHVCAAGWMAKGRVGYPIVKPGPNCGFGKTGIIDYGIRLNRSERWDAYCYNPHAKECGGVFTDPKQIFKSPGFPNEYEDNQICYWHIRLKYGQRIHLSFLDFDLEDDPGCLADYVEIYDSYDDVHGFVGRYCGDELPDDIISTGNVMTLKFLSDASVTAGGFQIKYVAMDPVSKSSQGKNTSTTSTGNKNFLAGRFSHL

Isolated Link module of human TSG-6 (Link_TSG6), sequence (P98066 36-129): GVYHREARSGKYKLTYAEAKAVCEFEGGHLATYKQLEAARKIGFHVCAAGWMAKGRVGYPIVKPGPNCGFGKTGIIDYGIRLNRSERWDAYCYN

B1: CCL5 (ligand, UniProt P13501 24-91, looked up)
chain: SPYSSDTTPCCFAYIARPLPRAHIKEYFYTSGKCSNPAVVFVTRKNRQVCANPEKKWVREYINSLEMS
- Kd [1]: 0.002 µM
- koff [1]: 0.00011 s⁻¹
- kon [1]: 57000 M⁻¹ s⁻¹

B2: CXCL8_T (K64A/K67A/R68A) mutant (ligand)
chain: SAKELRCQCIKTYSKPFHPKFIKELRVIESGPHCANTEIIVKLSDGRELCLDPKENWVQRVVEAFLAAAENS
modifications: 72-residue mature form by convention (mature numbering +27 = precursor); monomer/dimer equilibrium
- Kd [2]: 2.11 µM
- koff [2]: 0.0014 s⁻¹
- kon [2]: 640 M⁻¹ s⁻¹

B3: CXCL11 (ligand, UniProt O14625 22-94, looked up)
chain: FPMFKRGRCLCIGPGVKAVKVADIEKASIMYPSNNCDKIEVIITLKENKGQRCLNPKSKQARLIIKKVERKNF
- Kd [2]: 0.0164 µM
- koff [2]: 0.00011 s⁻¹
- kon [2]: 6400 M⁻¹ s⁻¹
